Source: the DeepSol protein solubility set

Assay: soluble on expression in E. coli; label from the status in PepcDB or PDB records

Sequence | soluble on expression in E. coli
MMPSQITRSSHSSLPEVAPASGDATGVSEQTPQQARTVAFFSSGELAVAFGRTSAAPEQDSVRLLSALQRELDKQHPSWHTVAQLCQSLAEVGTTEQGWHQLASEDQLPALRELLDRCTHRLADMPAAHASHDSLSQACEGLRTARLHQSVARLTARPSSLARAMADLLTLTHLDPETLGAEPPVISSYTLFSHFVRTAKQRTADLNDSLQRQPDAVVSLLRSHADTLNDLEMLPGALQALTENCQDAPARNELRELAEVAGALLQLLLEHDLLPRLEEISIEPGEA | not soluble
MMQISSNGITRLKREEGERLKAYSDSRGIPTIGVGHTGKVDGNSVASGMTITAEKSSELLKEDLQWVEDAISSLVRVPLNQNQYDAMCSLIFNIGKSAFAGSTVLRQLNLKNYQAAADAFLLWKKAGKDPDILLPRRRRERALFLS | soluble
MMRCPECSTEGWRVLPLTVGAHVKEGLWSKIKGDFYFCSLESCEVVYFNEQTVFRKGELKTRVGVKEREEPKPVCYCNRVTEKMLLEAAEKFGKEKAVEITGAGKGKWCVVTNPSGRCCHWHLERLGFPV | soluble
MMSKIFDLVVIGAGSGGLEAAWNAATLYKKRVAVIDVQMVHGPPFFSALGGTCVNVGCVPKKLMVTGAQYMEHLRESAGFGWEFDRTTLRAEWKNLIAVKDEAVLNINKSYDEMFRDTEGLEFFLGWGSLESKNVVNVRESADPASAVKERLETEHILLASGSWPHMPNIPGIEHCISSNEAFYLPEPPRRVLTVGGGFISVEFAGIFNAYKPKDGQVTLCYRGEMILRGFDHTLREELTKQLTANGIQILTKENPAKVELNADGSKSVTFESGKKMDFDLVMMAIGRSPRTKDLQLQNAGVMIKNGGVQVDEYSRTNVSNIYAIGDVTNRVMLTPVAINEAAALVDTVFGTTPRKTDHTRVASAVFSIPPIGTCGLIEEVASKRYEVVAVYLSSFTPLMHKVSGSKYKTFVAKIITNHSDGTVLGVHLLGDNAPEIIQGIGICLKLNAKISDFYNTIGVHPTSAEELCSMRTPSYYYVKGEKMEKPSEASL | soluble
MMSYALVLAGNRLITSGALGTNAAAIRGAMRADPNLLTVILPQSLERQPRESRQQLDKVMHLVEKPENDHLPLAEASSLCNQEIIARCQQLICFAFHDSHTLLQTCELAEEQHKVVTLFYFDLEHHHHHH | not soluble
MMTDKLNLNVLDAAFYSLEQTVVQISDRNWFDMQPSIVQDTLIAGAIQKFEFVYELSLKMMKRQLQQDAINTDDIGAYGFKDILREALRFGLIGDMSKWVAYRDMRNITSHTYDQEKAMAVYAQIDDFLIESSFLLEQLRQRNQYD | soluble
MNAEIASEIVAEIPLWSQELPDTQEIIASLISSNLFPLIYTEQDYLEIANASAGLYISDIIHCLTDIRKNHDLGNSSEIAKLLLAKKIQLLNRLYDIEFLPPPKVQLGGLELMQQSFKKFKRLLTPRAKQYNLRVPKGIMLEHHHHHH | not soluble
MNALPPAIFLMGPTAAGKTDLAIELSKVLPCELISVDSALVYRGMDIGTAKPSKAQLAEFPHRLIDILDPAQSYSAADFRSDALAAMAQITARGNIPLLVGGTMLYFKALLDGLADMPAANAAVRAQLEADAQAFGWQSLHDQLAVVDPVSAARIHPNDPQRLIRALEVYRVSGMSMTAHREQQTAQSTEAAASGCQQLPYTVANLAIAPADRKVLHQRIALRFEQMLDQGFLDEVLALRSRGDLHAGLPSIRAVGYRQVWDHLDGKLTREEMQERGIIATRQLAKRQFTWLRSWDDLHWLDSLASDNLSRALKYLGSVSILSLEHHHHHH | not soluble
MNANLPPSAISELHGPRLLLRAWRDSDREAFAEMCADPQVMEFFPSVLDRAQSDALVDRVQAHFAERGYGPWALELPGEAAFIGFTGLFDVTMDVHFAPTVEIGWRLAPAYWGRGLAREAAETALDFAFERLRLPEVVAFTTPPNRRSWGLMERLGMRRDPAEDFDHPLLAADHPMRRHILYRVDAARWAER | not soluble
MNDPLDSLSNDEFEIIETFDPETEDREDQWSIQQSIRIEPISIQMPNTLQSQRAPSPVGSKAPESLKDEDPDRTPEASIVETPLLTETLKEDRTPMSTPLASLVNSSQSPEFTLQNMSIVSESECSNNSSLVNVADVESTEIALRTSLLLVSELKSQLQAAKMSESTLLKSNSNHEIEENKKLSEKMEVMKNEFELKMQESAASVEKVIQEKDSAIEQLKVQLAQSQQVAELWKQGAEKNSNAQYSDSKTTIDRLLEENSKLRNLVDEEVARRLEESERRKLAEDQLKHARGGSVFDPPASFVASQLAERTTYSLNLEHELITLRKELEETKEALKKSVEESSNKDEIVSALHEDQQESTRMLASNEQVINSLKQKCRQLGVLEDFSS | soluble
MNEADYLRLLTRQAEQANDFLSNARKWDRERWVCQRFLEALNVPYRQEDFAAPGEQPPDVLFKGAGFEVFFVLDEGRRLNEEWREELTRRRQAVSLRQLIRREERPQRIAAAELQARLAPTLRKKAHNYSERGIDHGELDLLAFVNLKRAVPDFNTPFPPPTEYLRQGWRSLSMVGPTFARVLFAHSGAPEFLRANLGRSILFDAGVGL | soluble
MNEALSSGKVKNGEFLTVYLKEKLPDRLHYSQSYRIPPIIGMVGEGLIVRQNRTNAQECYGDHGYDNKFFSMRTIFVGHGSRFRRGKKVPSFENVQIYSVVADILGLRPAPNNGSSLFPRSILLPFRATRGLE | not soluble
MNEDIDMLIIANDLKQRGRKSIISGKFIFINMANEYEYVVYPVNENKTLSVKELEEFVDFSNRIKKKGVIAIVDKYGDVTYYLLSEINLGKK | soluble
MNEIHQPLARRVWRSNVDEEMARMAECLKRFPLIAFDTEYPGIIFRTYFDSSSDECYRAMKGNVENTKLIQCGFTLFNAKGEIGGVWEINFSNFGDPSDTRNELSIEFLRRHGLDLQKIRDEGVDMFGYGFFPKLMTVFRSQKHVEFVTFQGAYDFAYFLSILNHGKLPETHGEFATEVVKVFGQVYDTKVMAGFCEGLGEHLGLSKLAQLLQITRVGRAHHAGSDSLMTALVFIKLKHVYEDSRFARGLIYGIGKSNLVAAPAPAPVPEPTLPLMCQQNVASYPVFHNGYVQNYEQPQLVSYDPSGAPWAFCNATGTYVQLTHLPASTFAYPSQTPSATVDYLGPVPNYYNNNACYVVE | soluble
MNEISVVLPAYNEEENIQKLVKRWQQLCKDLKYKYELSLNIFVIDDGSKDKTEVIGRELERKYDNFYLIKHDKNKGLGEAINTGIKYVMEKRSDSKYVCIMDCDNTQDPRYVFSMIEKMEKTDVVIASRYQKGSCVKGVPFFRLTASYGARFVYTIFLGVKNVRDYTCGYRLYRTSALKTAFKVFGESFIEESGFTCMVELLYKLNICGAVFKEVPFTLRYDFKGGVSKMKVLITAINSVKLTLRLKKIRKGVEPVLEDLEHHHHHH | not soluble
MNEKNIKHSQNFITSKHNIDKIMTNIRLNEHDNIFEIGSGKGHFTLELVQRCNFVTAIEIDHKLCKTTENKLVDHDNFQVLNKDILQFKFPKNQSYKIFGNIPYNISTDIIRKIVFDSIADEIYLIVEYGFAKRLLNTKRSLALFLMAEVDISILSMVPREYFHPKPKVNSSLIRLNRKKSRISHKDKQKYNYFVMKWVNKEYKKIFTKNQFNNSLKHAGIDDLNNISFEQFLSLFNSYKLFNK | soluble
MNENWNWSLVDKVVYINLKERTDRNEHIKKELEKVCFPPEKIIRFEAIRAGSGFIGCAKSHLAVLKMAQENNWRNILILEDDMVFEDDDETIIRTNNFLSKLNNIHWDAAFLSASYYIVNAIDDNFFKVNFAYLANSYLVNNHYYEKLINNYTESVQRLTNGESSSEYGLDSNWLKIMKIDNWYGIYPVIGYQRTDISDIEYKEIDRTHQFTRTFDKMKAYGSK | soluble
MNEQAILQSAEAWVKKQLMDEYSGHDWYHIRRVTLMAKAIGEQEKVDVFVVQIAALFHDLIDDKLVDDPETAKQQLIDWMEAAGVPSQKIDHTMDIINTISFKGGHGQSLATREAMVVQDADRLDALGAIGIARTFAYSGNKGQPIYDPELPIRETMTVEEYRHGKSTAINHFYEKLFKLKDLMNTETGKQLAKERHVFMEQFIERFLSEWNGDMLEHHHHHH | soluble
MNERLIFNPKQLTSARIARGLTMKELAEKAELSRQMISNYESGKTIPKADSILKLISVLQFPRSFFSADTFELYSGATFFRSRSAATKKVRDMQKERLKYVQEVYKVLATYVNFPKVCLPELIEKSIYEITEEEIVKKAEELRKIWGLDLISPVPNLIQLAEQNGVIISEANMSNPTLDAVSRWMIGRPFIMLTDNHESAVRRRFNVAHELGHILLHNGVESIHEYSQTELKNIIEYQANLFAAHFLLPSAAFSDSLLSISLEYYIDLKKYWKVSLQSMIQKIYTLALINDDQRLYLNKRIAKNKWKTKEPYDEQLTIEQPEVFQKVYHMILEHQVIPASQLNQAFKLPKEEIEKILGTAIQTEQDKTEIVLELLRSNK | not soluble
MNFVQPIRDPEQIQQLKDYFKEKSLRNYILFIMGINTGLRISDILKLKVGDVKGSHISMREEKTGKQKRIQITAALKRELKWFIEEREDNEYLLQSRQGRNRPIGRSMAYKILSGAAADFGLDEIGTHTLRKTYGYHMYMQTKNIALLMEIFNHSSEKVTLRYIGVNQDAMDKAMTRFKI | not soluble
MNGCKQSASKVFKLVGGFNKASSRCFSSEKLIPKDLKIVKNPTSEQIKQFQKLVGDFNDIKLLKETMKDNYQLYLLCHKDSTVLSGTQSITYKSLNRSIPDFQTFGLSYQPDNTYNLLPHLMHEMATDFKSVKMNSGGCVDSKYAAVWRKVLHTKVRGPTYYVSHYKPDEVFNPELEFDDVVVKKFSDVPVEHVVKYDNSIFPYERKEYILAKFKNGVGRVAYNKSGEVIGIGLVSTESSGNCEIGPIYCDNKNAAQAIFQSIIQDLPMKDLKDVLVRCSDKFEDSATWIRPFLRRSHEMTPFAHIKFNRVIPDGLNFSKVFVSSNPSNAPC | not soluble
MNGEVMDELIQKLERVSQTSFIGSGKLMELSELVEMHEADVVIFNSELSATQVRNISKIVDARIIDLEHHHHHH | not soluble
MNGKQRMVEQSKQWLSEALIELMKTKDYQDISITEIAQKAELSRKTFYHSFKNKEAVINYLCDQLFDQYFQKLVKQEPQIGEAMLNTTFDIFLNFWWQQRSIIRLLIQQGLFDHMNEIWQKKAVPRYNQFAAPWHVKGTPKQVAYVMAFQLGGFTNILRLWLGQDSPEAPEKIKDLMLLAARQLADSLNPQKN | not soluble
MNHHLLSQAHLDKEKLVILVKEDEKMNSMHKDKPFFPLLIDYMSSGPVVAMLWEGCDVVKRARVILGEELEVGEFRSIFYDLVVRDTHKGCHCSDSVASANREYVLWFEEFKEGTRFD | not soluble
MNHPNAPFQPPMDIDAVWQHSLIRVTDAFALPPIVLRVDDAIIGTLGNFSVSTGKAKAKKTFNVCALVAAALVNGQVLEYQASFPESKRNILYFDTEQSPYHCQLVLQRILALAELPLDQQPEHLLFSHLRSIASPEERRAIIRYAIYHTPNVGLVVIDGIRDLMHDINNSAEATNLMGDLMQWTGERNIHIQTVLHLNKGDDNARGHIGTELNNKTESVLLITKDNSDADRSVVSASIIRSKPFPPFAFRLTEVDNICLRELDTDFTAKDAQPFSYQELSGEEHRTALREAFGQACELGYGDLLKRLSSSYLGVSGRPYGQTKLKELLRFLVNKRMLVKASRGRYQFNPDFHY | not soluble
MNIGIIGTGNMGNILIDAFLETRAVKPSCLTIINRTPAKAYHIKEKYPSVHIAKTIPEVIEQSQLIFICVKPIDIYPILKKYAEHFSDETCLVSITSPISPSQLETLVPCHVARIIPSITNRALSGASLFTFGDNCSEEWQQKLLRLFKNISTPLVIEEDITRVSSDIASCGPAFFSYLLQCFINAAVDKTNITHEEATTLVSEMVVGMGKLLEKEIFTLPTLQEKVCVKGGVTGEGIRVLEEHVGDMFHKLIERTHEKFDEDLECVDQQFNKHT | not soluble
